Several values for one entry are separate records, joined by “and”; a condition that tells them apart may be missing. Identical values can stand only once.

Consider six substances from patent publication US11306156.

The target in assay [1] is D3H44 light chain Q124R_Q160K_T178R, N-terminal HA or FLAG tag. Kind of assay: LCCA, L1:L2 DNA 1:3, SPR of light chain tags; competing light chain m20.
Assay [2] deals with D3H44 light chain Q124E_Q160E_T180E, N-terminal HA or FLAG tag. The assay can be described thus: LCCA, L1:L2 DNA 1:3, SPR of light chain tags; competing light chain m16.
The target in assay [3] is D3H44 light chain Q124R_Q160K_T178R, N-terminal HA or FLAG tag. Kind of assay: LCCA, L1:L2 DNA 1:3, SPR of light chain tags; competing light chain m13.
Assay [4] has as its target D3H44 light chain Q124R_T178R, N-terminal HA or FLAG tag. The description is as above.
In assay [5] the target is D3H44 light chain T178R, N-terminal HA or FLAG tag. The assay is described as above.
The target of assay [6] is D3H44 light chain Q124E_T180E, N-terminal HA or FLAG tag. Kind of assay: LCCA, L1:L2 DNA 1:3, SPR of light chain tags; competing light chain m14.
In assay [7] the target is D3H44 light chain Q124E_Q160E_T178E, N-terminal HA or FLAG tag. The assay is described as above.
The target of assay [8] is D3H44 light chain Q124R_T178K, N-terminal HA or FLAG tag. Kind of assay: LCCA, L1:L2 DNA 1:3, SPR of light chain tags; competing light chain m11.
The target of assay [9] is D3H44 light chain T178R, N-terminal HA or FLAG tag. The description is as above.
Assay [10] addresses D3H44 light chain Q124E_T180E, N-terminal HA or FLAG tag. The assay can be described thus: LCCA, L1:L2 DNA 1:3, SPR of light chain tags; competing light chain m10.
In assay [11] the target is D3H44 light chain Q124E_Q160E_T180E, N-terminal HA or FLAG tag. The description is as above.
The target is the same in assay [12]. Kind of assay: LCCA, L1:L2 DNA 1:9, SPR of light chain tags; competing light chain m10.
Assay [13] concerns the target D3H44 light chain Q124R_T178R, N-terminal HA or FLAG tag. The assay can be described thus: LCCA, L1:L2 DNA 1:3, SPR of light chain tags; competing light chain m19.
The target is the same in assay [14]. Kind of assay: LCCA, L1:L2 DNA 1:9, SPR of light chain tags; competing light chain m19.
Assay [15] addresses D3H44 light chain Q124E_S176L_T180E, N-terminal HA or FLAG tag. The assay can be described thus: LCCA, L1:L2 DNA 1:9, SPR of light chain tags; competing light chain m12.
The target in assay [16] is D3H44 light chain Q124E_T180E, N-terminal HA or FLAG tag. Kind of assay: LCCA, L1:L2 DNA 1:3, SPR of light chain tags; competing light chain m12.
The target of assay [17] is D3H44 light chain Q124E_S176L_T180E, N-terminal HA or FLAG tag. Described as above.
The target in assay [18] is D3H44 light chain T178R, N-terminal HA or FLAG tag. The assay can be described thus: LCCA, L1:L2 DNA 1:9, SPR of light chain tags; competing light chain m11.
For assay [19], the target named is D3H44 light chain Q124R_T178R, N-terminal HA or FLAG tag. The assay can be described thus: LCCA, SPR of light chain tags, L1:L2 DNA 1:3 norm. to 1:1; other light chain m20.
Assay [20] has the same target. Kind of assay: LCCA, SPR of light chain tags, L1:L2 DNA 1:3 norm. to 1:1; other light chain m22.
Assay [21] has the same target. The assay can be described thus: LCCA, SPR of light chain tags, L1:L2 DNA 1:3 norm. to 1:1; other light chain m16.
Assay [22] shares this target. The assay can be described thus: LCCA, SPR of light chain tags, L1:L2 DNA 1:9 norm. to 1:1; other light chain m15.
Assay [23] addresses D3H44 light chain Q124E_V133Y_T180E, N-terminal HA or FLAG tag. Kind of assay: LCCA, SPR of light chain tags, L1:L2 DNA 1:3 norm. to 1:1; other light chain m14.
The target in assay [24] is D3H44 light chain Q124E_S131T_T178F_T180E, N-terminal HA or FLAG tag. The description is as above.
In assay [25] the target is D3H44 light chain Q124E_S131T_T178Y_T180E, N-terminal HA or FLAG tag. The description is as above.
The target of assay [26] is D3H44 light chain Q124E_V133W_T180E, N-terminal HA or FLAG tag. The assay is described as above.
For assay [27], the target named is D3H44 light chain Q124E_S176L_T180E, N-terminal HA or FLAG tag. The assay is described as above.
Assay [28] concerns the target D3H44 light chain Q124R_T178R, N-terminal HA or FLAG tag. Kind of assay: LCCA, SPR of light chain tags, L1:L2 DNA 1:3 norm. to 1:1; other light chain m15.
Assay [29] shares this target. The assay can be described thus: LCCA, SPR of light chain tags, L1:L2 DNA 1:3 norm. to 1:1; other light chain m25.
Assay [30] shares this target. The assay can be described thus: LCCA, SPR of light chain tags, L1:L2 DNA 1:9 norm. to 1:1; other light chain m16.
Assay [31] addresses D3H44 light chain Q124E_S131T_T178Y_T180E, N-terminal HA or FLAG tag. Kind of assay: LCCA, SPR of light chain tags, L1:L2 DNA 1:9 norm. to 1:1; other light chain m14.
For assay [32], the target named is D3H44 light chain Q124E_S176L_T180E, N-terminal HA or FLAG tag. The assay is described as above.
In assay [33] the target is D3H44 light chain Q124E_V133E, N-terminal HA or FLAG tag. The assay can be described thus: LCCA, SPR of light chain tags, L1:L2 DNA 1:9 norm. to 1:1; other light chain m17.
Assay [34] shares this target. Kind of assay: LCCA, SPR of light chain tags, L1:L2 DNA 1:3 norm. to 1:1; other light chain m17.
Assay [35] addresses D3H44 light chain Q124R_Q160K_T178R, N-terminal HA or FLAG tag. Kind of assay: LCCA, SPR of light chain tags, L1:L2 DNA 1:9 norm. to 1:1; other light chain m18.
The target in assay [36] is D3H44 light chain Q124E_V133E, N-terminal HA or FLAG tag. Kind of assay: LCCA, SPR of light chain tags, L1:L2 DNA 1:3 norm. to 1:1; other light chain m24.
Assay [37] deals with D3H44 light chain Q124R_Q160K_T178R, N-terminal HA or FLAG tag. The assay can be described thus: LCCA, SPR of light chain tags, L1:L2 DNA 1:3 norm. to 1:1; other light chain m18.
In assay [38] the target is D3H44 light chain Q124R, N-terminal HA or FLAG tag. Described as above.
Assay [39] has as its target D3H44 light chain Q124E_V133E, N-terminal HA or FLAG tag. The assay can be described thus: LCCA, L1:L2 DNA 1:3, SPR of light chain tags; competing light chain m17.
Assay [40] addresses D3H44 light chain Q124R, N-terminal HA or FLAG tag. The assay can be described thus: LCCA, L1:L2 DNA 1:9, SPR of light chain tags; competing light chain m18.
Assay [41] addresses D3H44 light chain Q124E_V133E, N-terminal HA or FLAG tag. Kind of assay: LCCA, L1:L2 DNA 1:9, SPR of light chain tags; competing light chain m17.
Assay [42] addresses D3H44 light chain Q124R, N-terminal HA or FLAG tag. Kind of assay: LCCA, L1:L2 DNA 1:3, SPR of light chain tags; competing light chain m18.
In assay [43] the target is D3H44 light chain Q124R_Q160K_T178R, N-terminal HA or FLAG tag. The assay can be described thus: LCCA, SPR of light chain tags, L1:L2 DNA 1:9 norm. to 1:1; other light chain m27.
Assay [44] concerns the target D3H44 light chain Q124E_V133D_S176L, N-terminal HA or FLAG tag. Kind of assay: LCCA, SPR of light chain tags, L1:L2 DNA 1:9 norm. to 1:1; other light chain m17.
The target is the same in assay [45]. Kind of assay: LCCA, SPR of light chain tags, L1:L2 DNA 1:3 norm. to 1:1; other light chain m17.
Assay [46] concerns the target D3H44 light chain Q124R_Q160K_T178R, N-terminal HA or FLAG tag. The assay can be described thus: LCCA, SPR of light chain tags, L1:L2 DNA 1:3 norm. to 1:1; other light chain m27.

In the case of “D3H44 Fab heavy chain S186K, C-terminal ABD2-His6 tag”, the H2L2:H2L1 normalized median ratio in assay [1] was 1 share of 100; in assay [2], 92 share of 100; in assay [3], 3 share of 100; in assay [4], 6 share of 100; in assay [5], 4 share of 100; in assay [6], 97 share of 100. Further, the H2L2:H2L1 normalized median ratio in assay [7] is 99 share of 100; in assay [8], 8 share of 100; in assay [9] it was 9 share of 100; in assay [10] it was 96 share of 100; in [11], 91 share of 100; in [12], 87 share of 100. In addition, the H2L2:H2L1 normalized median ratio in assay [13] is 4 share of 100; in assay [14] it was 9 share of 100; in assay [15] it was 91 share of 100; in assay [16], 94 share of 100; in [17] it was 96 share of 100; in assay [18], 13 share of 100.

Turning to “D3H44 Fab heavy chain L143E_K145T_Q179E_S188L, ABD2-His6 tagged”, the H1L1:H1L2 normalized median ratio in assay [19] was 77%; in assay [21], 87%; in [22] it was 79%; in assay [24], 23%; in assay [25], 17%; in [27], 13%. For the same substance, the H1L1:H1L2 normalized median ratio worked out at 83% in assay [28], 90% in assay [30], 21% in assay [31] and 10% in assay [32]. Also, the H1L1:H1L2 normalized median scalar value ln(r1/f1) in assay [19] came out at 1.19; in [21] it was 1.9; in [22], 1.33; in assay [28], 1.62; in assay [30], 2.25. Besides, the H2L2:H2L1 normalized median ratio in [20] came out at 71%; in [23], 29%; in assay [26], 25%; in assay [29] it was 75%.

Regarding “D3H44 Fab heavy chain L143R, ABD2-His6 tagged”, the H2L2:H2L1 normalized median ratio in [33] is 93%; in [34], 96%; in assay [35], 7%; in [36] it was 96%; in assay [37], 4%; in [38] it was 4%.

“D3H44 Fab heavy chain L143E_K145T, C-terminal ABD2-His6 tag”: the H1L1:H1L2 normalized median ratio was 59 share of 100 in [1]; 9 share of 100 in assay [39]; 59 share of 100 in assay [3]; 88 share of 100 in assay [40]; 12 share of 100 in assay [41]; 41 share of 100 in assay [6]. Further, the H1L1:H1L2 normalized median ratio in assay [7] was 41 share of 100; in [42] it was 91 share of 100. The H1L1:H1L2 normalized median scalar value ln(r1/f1) was 0.37 in assay [1]; 0.33 and 0.38 in assay [3]; 1.95 in assay [40]; 2.37 in [42].

For the substance “D3H44 Fab heavy chain L143K, ABD2-His6 tagged”, the H2L2:H2L1 normalized median ratio in assay [43] is 9%; in [44], 91%; in [45], 94%; in assay [46], 6%.

Take “D3H44 Fab heavy chain L143A_Q179K, ABD2-His6 tagged”: the H1L1:H1L2 normalized median ratio in assay [20] came out at 4%. In assay [23], the H1L1:H1L2 normalized median ratio is 96% and the H1L1:H1L2 normalized median scalar value ln(r1/f1) turned out to be 1.
